Results as given in article PMC4484809.

Columns and labels:
[1] = biological target: Xpo1 (full-length, 1–1071) (S. cerevisiae) (UniProt P30822)
[2] = biological target: Xpo1 (full-length, 1–1071) (S. cerevisiae) (UniProt P30822); remark: listed apart in the source
[3] = biological target: Xpo1 (full-length, 1–1071) (S. cerevisiae) (UniProt P30822); remark: listed apart in the source

RNA duplex unwinding (helicase) by Ded1 I13A (50 nM) with Xpo1 (550 nM) and Ran[GTP]Q71L (650 nM); fold inhibition of k unwind [1]	Michaelis-Menten analysis of Ded1 ATPase (500 nM) against whole cell yeast RNA, with ~10 fold molar excess of Xpo1 and Ran[GTP]Q71L; fold change of the apparent KM for RNA [2]	RNA-stimulated ATPase activity of Ded1 (500 nM, 320 μg/mL whole-cell yeast RNA) with Xpo1 0.55–11 μM and Ran[GTP]Q71L 0.65–13 μM added together; fold reduction [3]	RNA duplex unwinding (helicase) by Ded1 (50 nM) with Xpo1 (550 nM) and Ran[GTP]Q71L (650 nM); fold inhibition of k unwind [1]	Substance
< 2 fold	–	–	–	Ded1_(I13A) (full-length Ded1, I13A) (from UniProt P06634 1-604) (natural protein)
–	50 fold	2 fold	5 fold	Ded1 (full-length, 1–604) (from UniProt P06634 1-604) (natural protein)
